Test results: US20060234285A1 (Human Genome Sciences, published 2006)

B1: Soluble human FLAG-FasL (synthesized at HGS) (ligand, UniProt P48023 130-281, looked up, not shown: small tags and cut ends)
chain: QIGHPSPPPEKKELRKVAHLTGKSNSRSMPLEWEDTYGIVLLSGVKYKKGGLVINETGLYFVYSKVYFRGQSCNNLPLSHKVYMRNSKYPQDLVMMEGKMMSYCTTGQMWARSSYLGAVFNLTSADHLYVNVSELSLVNFEESQTFFGLYKL
notes: called trimerized in the kinetic BIAcore run; cross-linked with FLAG antibody in the cell assays; also called FasL-Flag; trimerized FLAG-FasL
B11: TNFR-6 alpha-Fc fusion protein (full length TNFR-6 alpha, amino acids 1-300 of SEQ ID NO:2, fused to the Fc domain of human IgG1) (Fc fusion, not shown: a dimerising Fc or GST)
chain: VAETPTYPWRDAETGERLVCAQCPPGTFVQRPCRRDSPTTCGPCPPRHYTQFWNYLERCRYCNVLCGEREEEARACHATHNRACRCRTGFFAHAGFCLEHASCPPGAGVIAPGTPSQNTQCQPCPPGTFSASSSSSEQCQPHRNCTALGLALNVPGSSSHDTLCTSCTGFPLSTRVPGAEECERAVIDFVAFQDISIKRLQRLLQALEAPEGWGPTPRAGRAALQLKLRRRLTELLGAQDGALLVRLLQALRVARMPGLERSVRERFLPVH

Assays:
[1] = molecular target: T1, Full-length human TR6 (without Fc) (human, UniProt O95407 30-300); experiment: BIAcore, FasL-Flag soluble
T1 construct: Full-length cDNA expressed in Sf9 cells with the natural leader; also called TR6 non-Fc; TR6-non-Fc
T1 sequence: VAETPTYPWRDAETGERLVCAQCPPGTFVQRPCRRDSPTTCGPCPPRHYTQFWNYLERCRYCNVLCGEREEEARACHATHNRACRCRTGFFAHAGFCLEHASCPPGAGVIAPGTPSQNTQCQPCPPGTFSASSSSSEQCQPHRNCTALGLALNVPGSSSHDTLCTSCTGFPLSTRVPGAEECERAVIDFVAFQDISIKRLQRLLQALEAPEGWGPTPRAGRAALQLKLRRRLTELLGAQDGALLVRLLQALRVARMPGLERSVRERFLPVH

[2] = molecular target: B11; experiment: BIAcore, TR6-Fc immobilized, trimerized FLAG-FasL soluble
[3] = molecular target: T2, TNF-gamma-beta, full length, on transfected cells (human, UniProt O95150 1-251); experiment: flow cytometry on HEK293F cells expressing full length TNF-gamma-beta
T2 construct: whole, on cells; also called TL1β
T2 sequence (looked up): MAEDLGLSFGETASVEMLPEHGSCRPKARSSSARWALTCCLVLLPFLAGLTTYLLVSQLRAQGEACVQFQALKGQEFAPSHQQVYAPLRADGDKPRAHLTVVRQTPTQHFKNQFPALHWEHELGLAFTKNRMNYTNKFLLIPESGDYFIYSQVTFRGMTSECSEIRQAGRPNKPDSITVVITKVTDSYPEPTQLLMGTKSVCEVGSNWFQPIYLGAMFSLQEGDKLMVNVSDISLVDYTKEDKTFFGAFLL
Procedure: One million cells, in 0.1 ml of FACS buffer (PBS, 0.1% BSA, 0.1% NaN₃), were incubated with 0.1-1 microgram of protein or antibody at RT for 15 min. The cells were washed with 3 ml of FACS buffer, reacted with biotinylated primary antibody, and stained with PE-conjugated secondary antibody at RT for 15 min. Cells were then washed again, resuspended in 0.5 microgram/ml of propidium iodide, and live cells were gated and analyzed on a FACScan using the CellQuest software (BD Biosciences).

[4] = molecular target: B11; experiment: BIAcore
[5] = molecular target: T3, FLAG-tagged soluble form of TNF-gamma-beta (aa 72-251) (human, UniProt O95150 72-251); experiment: coimmunoprecipitation with protein A-Sepharose, anti-Flag western blot
T3 construct: also called FLAG-TL1β; FLAG-TNF-gamma-beta
T3 sequence (looked up): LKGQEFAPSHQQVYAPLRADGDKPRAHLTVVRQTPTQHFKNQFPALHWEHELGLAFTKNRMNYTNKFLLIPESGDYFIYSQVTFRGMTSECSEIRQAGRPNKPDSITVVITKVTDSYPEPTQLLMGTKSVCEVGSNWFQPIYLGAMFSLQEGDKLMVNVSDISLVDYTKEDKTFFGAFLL
From the text: The beads were then precipitated and washed extensively with PBST buffer (PBS, 0.5% Triton X-100) before boiled in SDS-sample buffer. Proteins were resolved on 4-20% Tris-Glycine gels (NOVEX), transferred to nitrocellulose membranes, and blotted with anti-Flag M2 monoclonal antibody (1 microgram/ml, Sigma) and horseradish peroxidase (HRP)-conjugated goat anti-mouse IgG antibody (0.5 microgram/ml).

TNFR-6 alpha-(His) = molecular target: T4, TNFR-6 alpha-(His) (human, UniProt O95407 30-300); experiment: flow cytometry on AIM-II-transfected HEK 293 EBNA cells
T4 construct: also called TNFR-6α; DcR3
T4 sequence: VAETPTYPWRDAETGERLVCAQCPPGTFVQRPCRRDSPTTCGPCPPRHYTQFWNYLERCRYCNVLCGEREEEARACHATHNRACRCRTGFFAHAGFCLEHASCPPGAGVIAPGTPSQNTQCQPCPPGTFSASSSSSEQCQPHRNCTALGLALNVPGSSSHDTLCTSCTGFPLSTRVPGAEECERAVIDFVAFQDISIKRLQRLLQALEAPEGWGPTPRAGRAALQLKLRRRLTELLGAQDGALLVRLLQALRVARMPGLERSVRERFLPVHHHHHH

[6] = molecular target: T5, sFas ligand (Alexis Corporation) with a FLAG epitope tag at its N-terminus (human, UniProt P48023 103-281); experiment: cell-based or functional assay
T5 sequence (looked up): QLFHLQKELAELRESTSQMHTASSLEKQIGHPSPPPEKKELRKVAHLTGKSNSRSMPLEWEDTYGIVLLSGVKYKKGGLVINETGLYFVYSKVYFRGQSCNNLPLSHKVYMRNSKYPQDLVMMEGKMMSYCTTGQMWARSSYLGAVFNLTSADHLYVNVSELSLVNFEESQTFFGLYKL

[7] = molecular target: T6, Murine FasL on transfected murine L929 cells (murine, UniProt P41047 1-279); experiment: cell-based or functional assay
T6 sequence (looked up): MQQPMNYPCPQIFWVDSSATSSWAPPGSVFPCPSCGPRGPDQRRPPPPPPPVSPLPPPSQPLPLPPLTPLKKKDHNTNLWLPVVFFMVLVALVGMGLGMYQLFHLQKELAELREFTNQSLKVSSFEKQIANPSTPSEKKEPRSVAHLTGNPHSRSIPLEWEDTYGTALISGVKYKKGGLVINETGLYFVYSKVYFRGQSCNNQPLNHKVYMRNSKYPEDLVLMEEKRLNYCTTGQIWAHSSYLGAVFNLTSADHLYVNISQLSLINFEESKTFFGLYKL

[8] = molecular target: B1; experiment: cell-based or functional assay

## B1
[1]
  Kd: 17 nM
[2]
  Kd: 4.6 nM

B2: OPG-Fc (Fc fusion, UniProt O00300 22-201, looked up, not shown: a dimerising Fc or GST)
chain: ETFPPKYLHYDEETSHQLLCDKCPPGTYLKQHCTAKWKTVCAPCPDHYYTDSWHTSDECLYCSPVCKELQYVKQECNRTHNRVCECKEGRYLEIEFCLKHRSCPPGFGVVQAGTPERNTVCKRCPDGFFSNETSSKAPCRKHTNCSVFGLLLTQKGNATHDNICSGNSESTQKCGIDVTL
notes: extracellular domain
[3]
  binding result: no binding

B3: AITR-Fc (Fc fusion, UniProt Q9Y5U5 26-162, looked up, not shown: a dimerising Fc or GST)
chain: QRPTGGPGCGPGRLLLGTGTDARCCRVHTTRCCRDYPGEECCSEWDCMCVQPEFHCGDPCCTTCRHHPCPPGQGVQSQGKFSFGFQCIDCASGTFSGGHEGHCKPWTDCTQFGFLTVFPGNKTHNAVCVPGSPPAEP
notes: extracellular domain
[3]
  binding result: no binding

B4: RANK-Fc (Fc fusion, UniProt Q9Y6Q6 30-212, looked up, not shown: a dimerising Fc or GST)
chain: IAPPCTSEKHYEHLGRCCNKCEPGKYMSSKCTTTSDSVCLPCGPDEYLDSWNEEDKCLLHKVCDTGKALVAVVAGNSTTPRRCACTAGYHWSQDCECCRRNTECAPGLGAQHPLQLNKDTVCKPCLAGYFSDAFSSTDKCRPWTNCTFLGKRVEHHGTEKSDAVCSSSLPARKPPNEPHVYLP
notes: extracellular domain
[3]
  binding result: no binding

B5: Extra-cellular portion of FasL (Oncogene Research Products), amino acids 103-281 (ligand, human, UniProt P48023 103-281, looked up)
chain: QLFHLQKELAELRESTSQMHTASSLEKQIGHPSPPPEKKELRKVAHLTGKSNSRSMPLEWEDTYGIVLLSGVKYKKGGLVINETGLYFVYSKVYFRGQSCNNLPLSHKVYMRNSKYPQDLVMMEGKMMSYCTTGQMWARSSYLGAVFNLTSADHLYVNVSELSLVNFEESQTFFGLYKL
notes: range 103-281; Immobilised on a BIAcore chip (2020 RU); also called immobilized FasL
[4]
  binding result: binds

B6: DcR2-Fc (Fc fusion, UniProt Q9UBN6 56-211, looked up, not shown: a dimerising Fc or GST)
chain: ATIPRQDEVPQQTVAPQQQRRSLKEEECPAGSHRSEYTGACNPCTEGVDYTIASNNLPSCLLCTVCKSGQTNKSSCTTTRDTVCQCEKGSFQDKNSPEMCRTCRTGCPRGMVKVSNCTPRSDIKCKNESAASSTGKTPAAEETVTTILGMLASPYH
notes: extracellular domain
[3]
  binding result: no binding

B7: OX40-Fc (Fc fusion, UniProt P43489 29-214, looked up, not shown: a dimerising Fc or GST)
chain: LHCVGDTYPSNDRCCHECRPGNGMVSRCSRSQNTVCRPCGPGFYNDVVSSKPCKPCTWCNLRSGSERKQLCTATQDTVCRCRAGTQPLDSYKPGVDCAPCPPGHFSPGDNQACKPWTNCTLAGKHTLQPASNSSDAICEDRDPPATQPQETQGPPARPITVQPTEAWPRTSQGPSTRPVEVPGGRA
notes: extracellular domain
[3]
  binding result: no binding

B8: DcR1-Fc (Fc fusion, UniProt O14798 26-236, looked up, not shown: a dimerising Fc or GST)
chain: ATTARQEEVPQQTVAPQQQRHSFKGEECPAGSHRSEHTGACNPCTEGVDYTNASNNEPSCFPCTVCKSDQKHKSSCTMTRDTVCQCKEGTFRNENSPEMCRKCSRCPSGEVQVSNCTSWDDIQCVEEFGANATVETPAAEETMNTSPGTPAPAAEETMNTSPGTPAPAAEETMTTSPGTPAPAAEETMTTSPGTPAPAAEETMITSPGTPA
notes: extracellular domain
[3]
  binding result: no binding

B9: TACI-Fc (extracellular domain of human TAC1, aa 1-159, fused to the Fc domain of human IgG1) (Fc fusion, UniProt O14836 1-159, looked up, not shown: a dimerising Fc or GST)
chain: MSGLGRSRRGGRSRVDQEERFPQGLWTGVAMRSCPEEQYWDPLLGTCMSCKTICNHQSQRTCAAFCRSLSCRKEQGKFYDHLLRDCISCASICGQHPKQCAYFCENKLRSPVNLPPELRRQRSGEVENNSDNSGRYQGLEHRGSEASPALPGLKLSADQ
notes: range 1-159; also called TAC1-Fc
[5]
  binding result: no binding
[3]
  binding result: no binding

B10: AIM-II, full sequence, on stably transfected HEK 293 EBNA cells (ligand, UniProt O43557 1-240, looked up)
chain: MEESVVRPSVFVVDGQTDIPFTRLGRSHRRQSCSVARVGLGLLLLLMGAGLAVQGWFLLQLHWRLGEMVTRLPDGPAGSWEQLIQERRSHEVNPAAHLTGANSSLTGSGGPLLWETQLGLAFLRGLSYHDGALVVTKAGYYYIYSKVQLGGVGCPLGLASTITHGLYKRTPRYPEELELLVSQQSPCGRATSSSRVWWDSSFLGGVVHLEAGEKVVVRVLDERLVRLRDGTRSYFGAFMV
notes: whole, on cells
TNFR-6 alpha-(His)
  binding result: binds

## B11
[6]
  IC50 (read off the curve): TR6Fc concentration giving half rescue of Jurkat viability from sFasL 20 ng (Alamar blue, OD 570 nm - 630 nM): ~5 ng/mL
[7]
  IC50 of inhibition of killing of A20 target cells by murine FasL-transfected L929 cells: ~1 ng/mL
[8]
  potency against FasL-induced Jurkat cytotoxicity relative to Fas-Fc: 100 fold

B12: TNFR1-Fc (Fc fusion, UniProt P19438 30-211, looked up, not shown: a dimerising Fc or GST)
chain: LVPHLGDREKRDSVCPQGKYIHPQNNSICCTKCHKGTYLYNDCPGPGQDTDCRECESGSFTASENHLRHCLSCSKCRKEMGQVEISSCTVDRDTVCGCRKNQYRHYWSENLFQCFNCSLCLNGTVHLSCQEKQNTVCTCHAGFFLRENECVSCSNCKKSLECTKLCLPQIENVKGTEDSGTT
notes: extracellular domain; also called TNFRLFc
[3]
  binding result: no binding
